Data from the DeepSol protein solubility set.

Test: soluble on expression in E. coli; label from the status in PepcDB or PDB records

| Sequence | soluble on expression in E. coli |
| --- | --- |
| GHMGAWLASLKQTLGLLPADRKIRVLMLGLDNAGKTSILYRLHLGDVVTTVPTVGVNLETLQYKNISFEVWDLGGQTGVRPYWRCYFSDTDAVIYVVDSTDRDRMGVAKHELYALLDEDELRKSLLLIFANKQDLPDAASEAEIAEQLGVSSIMNRTWTIVKSSSKTGDGLVEGMDWLVERLREQGLGA | soluble |
| MSLSITRKDFDHINLEYSGLEKVNKAVAAGNYDDAAKALLAYYREKSKAREPDFSNAEKPADIRQPIDKVTREMADKALVHQFQPHKGYGYFDYGKDINWQMWPVKDNEVRWQLHRVKWWQAMALVYHATGDEKYAREWVYQYSDWARKNPLGLSQDNDKFVWRPLEVSDRVQSLPPTFSLFVNSPAFTPAFLMEFLNSYHQQADYLSTHYAEQGNHRLFEAQRNLFAGVSFPEFKDSPRWRQTGISVLNTEIKKQVYADGMQFELSPIYHVAAIDIFLKAYGSAKRVNLEKEFPQSYVQTVENMIMALISISLPDYNTPMFGDSWITDKNFRMAQFASWARVFPANQAIKYFATDGKQGKAPNFLSKALSNAGFYTFRSGWDKNATVMVLKASPPGEFHAQPDNGTFELFIKGRNFTPDAGVFVYSGDEAIMKLRNWYRQTRIHSTLTLDNQNMVITKARQNKWETGNNLDVLTYTNPSYPNLDHQRSVLFINKKYFLVIDRAIGEATGNLGVHWQLKEDSNPVFDKTKNRVYTTYRDGNNLMIQSLNADRTSLNEEEGKVSYVYNKELKRPAFVFEKPKKNAGTQNFVSIVYPYDGQKAPEISIRENKGNDFEKGKLNLTLTINGKQQLVLVPEGHHHHHH | soluble |
| MSQKQEEENPAEETGEEKQDTQEKEGILPERAEEAKLKAKYPSLGQKPGGSDFLMKRLQKGQKYFDSGDYNMAKAKMKNKQLPSAGPDKNLVTGDHIPTPQDLPQRKSSLVTSKLAGGQVE | soluble |
| MIKNRQEILFLYDVTDANPNGDPLDENKPRIDEETGINIVTDVRLKRTIRDYLYDYKGFDGSNGKDIFVREIESEKGGIKDGKARAKDFNENVDEILQKAIDIRLFGGVIPLDKASITFTGPVQFNMGRSLNKVNLKHIKGTGAFASGEGKAQKTFREEYIVPYSIIAFHGIINENAAKRTGLTDEDVDLLDDAMWNGTKNLITRSKMGHMPRLMLRVVYKPGENFFIGDLQNRISLNFDVEEEKIRSIKDFSIKLDELIDELANYGDKIEKVVFVADKNLRLSYKGREINLKDIKDIRFEEKTF | soluble |
| MADNINESEIIERLNSAPSVRGFFIATVDVFNESIDGLIQRIFRKDNFAVQSVVGPLLQDSGPLGDLSVRLKLLFGLGVLPDDIYHDIEDIIKLKNHLNSDASDYEFTDPNILEPIKKLHLVKKMGMVQLEVNEPDDDIDLEFYQLQLQRQQQIIKSGLSLAIVEICNELGK | soluble |
| GKSTTLFSRHTKAIVWGMQTRAVQGMLDFDYVCSRDEPSVAAMVYPFTGDHKQKFYWGHKEILIPVFKNMADAMRKHPEVDVLINFASLRSAYDSTMETMNYAQIRTIAIIAEGIPEALTRKLIKKADQKGVTIIGPATVGGIKPGCFKIGNTGGMLDNILASKLYRPGSVAYVSRSGGMSNELNNIISRTTDGVYEGVAIGGDRYPGSTFMDHVLRYQDTPGVKMIVVLGEIGGTEEYKICRGIKEGRLTKPIVCWCIGTCATMFSSEVQFGHAGACANQASETAVAKNQALKEAGVFVPRSFDELGEIIQSVYEDLVANGVIVPAQEVPPPTV | soluble |
| MILFDKNKRILKKYAKMVSKINQIESDLRSKKNSELIRLSMVLKEKVNSFEDADEHLFEAFALVREAARRTLGMRPFDVQVMGGIALHEGKVAEMKTGEGKTLAATMPIYLNALIGKGVHLVTVNDYLARRDALWMGPVYLFLGLRVGVINSLGKSYEVVWKNPDLARKAIEENWSVWPDGFNGEVLKEESMNKEAVEAFQVELKEITRKEAYLCDVTYGTNNEFGFDYLRDNLVLDYNDKVQRGHFYAIVDEADSVLIDEARTPLIISGPSKESPSVYRRFAQIAKKFVKDKDFTVDEKARTIILTEEGVAKAEKIIGVENLYDPGNVSLLYHLINALKALHLFKKDVDYVVMNGEVIIVDEFTGRLLPGRRYSGGLHQAIEAKEGVPIKEESITYATITFQNYFRMYEKLAGMTGTAKTEESEFVQVYGMEVVVIPTHKPMIRKDHDDLVFRTQKEKYEKIVEEIEKRYKKGQPVLVGTTSIEKSELLSSMLKKKGIPHQVLNAKYHEKEAEIVAKAGQKGMVTIATNMAGRGTDIKLGPGVAELGGLCIIGTERHESRRIDNQLRGRAGRQGDPGESIFFLSLEDDLLRIFGSEQIGKVMNILKIEEGQPIQHPMLSKLIENIQKKVEGINFSIRKTLMEMDDVLDKQRRAVYSLRDQILLEKDYDEYLKDIFEDVVSTRVEEFCSGKNWDIESLKNSLSFFPAGLFDLDEKQFSSSEELHDYLFNRLWEEYQRKKQEIGEDYRKVIRFLMLRIIDDHWRRYLEEVEHVKEAVQLRSYGQKDPIVEFKKETYYMFDEMMRRINDTIANYVLRVVKVSEKDEKEAKEELGKIRLVHEEFNLVNRAMRRATEKKKKKDGLHSFGRIRVKR | soluble |
| MGHHHHHHSHHRFSINGHFYNHKTSVFTPAYGSVTNVRINSTMTTPQVLKLLLNKFKIENSAEEFALYVVHTSGEKQKLKATDYPLIARILQGPCEQISKVFLMEKDQVEEVTYDVAQYIKFEMPVLKSFIQKLQEEEDREVKKLMRKYTVLRLMIRQRLEEIAETPATI | not soluble |
| MTKEAVLYKKEDGRIRCLACARKCLIGEGQVGFCGVRSVRNGKLYLDVYGKIAAAHIDPIEKKPLVHFNPGSKVFSFSTYGCNWMCMYCQNYDISQRRKAEGVELSPEEIVELAMGYDVDGMTYTYNEPAIFSEFAHDVGIVAKRYGLFNTMVSNGYWTPNLVDYVKDFLDAVTIDFKGNGEQKFLRRYTGATSAEPIIETASELSKKGIHVEITDLIIPQIGDDLQAAKQLLTKLYDQLGADIPIHFLRFHPDYKLNYIPWTPVETLERHYKLAKELGFKFVYVGNVPGHPYENTYCPNCGNLVIRRYSFDILEWHLTEDMRCKFCGYKLPIRGKLSRHAFKERFEPVFI | not soluble |
| MGSDKIHHHHHHMKVLNKPLEGVKVIDLTYFVAGPGTSKILADWGADVIKVEPSFGDPGRKTGATMTMPIDDYNNPFYSTYNSNKRGLSINLKSETGIEIMDKLLSEANVFVSSYRTGALKRLGLDYESLSKKHPHLIWGQINGFGDFGPAKDNAGFDTVAFWARSGAMLDIAEKDTSPINPPIAFGDATTSCSLSGGICAALYQQAKTGKGQKVMASLFGQAIWNASSLLASTQFSDEYPKTRKNAISPVINSYRCKDGKWIFLSILEHERYFEALCRLFGREDLIKEEKFASSVESKKNATELINILDGEFAKFTQNEMVEKLTAADIAHEKIQHVNDVVTDEQAIANNYIYEHTSKNGNKTMLASTPVKFGNIEVNMTCDAPLIGEHSDEILRELGYSDSDIEALIESGIVTMNKEACEIC | not soluble |
| MSLKSGCSARQVCAGNTHFAVVTVEKELYTWVNMQGGTKLHGQLGHGDKASYRQPKHVEKLQGKAIHQVSCGDDFTVCVTDEGQLYAFGSDYYGCMGVDKVAGPEVLEPMQLNFFLSNPVEQVSCGDNHVVVLTRNKEVYSWGCGEYGRLGLDSEEDYYTPQKVDVPKALIIVAVQCGCDGTFLLTQSGKVLACGLNEFNKLGLNQCMSGIINHEAYHEVPYTTSFTLAKQLSFYKIRTIAPGKTHTAAIDERGRLLTFGCNKCGQLGVGNYKKRLGINLLGGPLGGKQVIRVSCGDEFTIAATDDNHIFAWGNGGNGRLAMTPTERPHGSDICTSWPRPIFGSLHHVPDLSCRGWHTILIVEKVLNSKTIRSNSSGLSIGTVFQSSSEGHHHHHH | not soluble |
| MAHHHHHHMSEERVKILVLGPSRSGKSTIANFLAGLRETPTKGYYETQPLRILEVEIGLDNLKVGGRHVVGPKKAIVQLWDLGGSSKHQAGWQAVAANADGIIYVFNPEVRGAEKELVLWHKNFALDQDKLDERNNFKVRVPDKHSLVFSHHSSMPELAVGDNAIPSLPKQLRGVRAIETSLDYQSGNFKEAFDAMVEQIVVSRIVAEEDEILQKEREAGDAPRMVR | not soluble |
| MKSSPKSLKMRDNLLDGTFVVIDLEATGFDVEKSEVIDLAAVRVEGGIITEKFSTLVYPGYFIPERIKKLTGITNAMLVGQPTIEEVLPEFLEFVGDNIVVGHFVEQDIKFINKYTKQYRGKKFRNPSLCTLKLARKVFPGLKKYSLKEIAENFGFETNGVHRALKDATLTAEIFIKILEELWFKYGIGDYYSLKRLEKGKF | soluble |
| MTAIEQTEAVRPRGTRLPRRARRNQLLGAAQEVFVAQGYHAAAMDDIAERAGVSKPVLYQHFPGKLDLYLALLDQHCEALIQSVRSALASTSDNKQRVRATMDAYFAYVEDDGGAFRLVFESDLTNEPAVRERVDKVTNECAEAICDVIAEDTGLSRAESMLLASGLGGLAQVVARSWLHSDRSVPRDQAVQLLTSLAWRGIAGFPLHGIEQH | not soluble |
| MGLDTIEKGADGLDSIKSLAFVYGETDNPYTKTSELFTWLFGHEIADTVLLLLNDHIYILGSNRKVEFFGSVTGDNQSSGKVPTVSTLLRDKTDKDAGNFEKLIDHIKSAGGDVGNFVKEKFSSEFVSSWNKALEEGGVNKNDVTLAFTHLFAVKDDKEMDLIRKSAQATTASWTAARARYVEISDNEKVLIVLKIVELGVLLRVRHSVLSNQFAAFMKDSKVQQALAKYEADTCYDPIKMLIFVDRKYDSVVVPIFGIPVPFHISMIKNCSQSVEGDLTYLRINFATPGSQVGKDSGQFPHPLAHYMKEFTFRASNIKDHHSDSTAPSRNLSTAFRFIKEMQKRFKSEEAEQREKEGAVKQDKLILSQNKLNPKLNLLICPNIIQKLITGSLEAHTNGFRFLFNSFSRYTSLRAFFEEGGWSFLNAESDNEEAMDDSDDSDAYDPEEEDASAGSGSESDEDESEGEETESDDDDEGSLDSDEFVQPIFAF | not soluble |
| MHPKRTPGTCFPGRGRPAPPRISVTVPEEVSQQEDLLVARSSELGGNSNTAVALTFNHALTAVRFVCGNDMREGTVKQVRLKNVYSRGTYNMGTQTWSGLDTPASFSQALDKVTTGTADEALTSEAQTFMMLPQRFPEGAQIEVLFTDDTHTGHTLIADIKGSEWPMGKTVTYKISSSSLNWTYTLDVTALADFTYTGGTQQYCVTSYRQNAQGEKEAAEWTAQYAEDGTTWTDTKPVWLTAFTASGTGGEFAQPCDATVEAQTGISNDLHENALKAATAKGSETTPYNLSNNTGGNTVENTANCYVVNAPGYYSLPLVYGNAIKNSATNASAYTSTVTGTNILNPFINHAGNGITDPYISGNGCTPAKAELVWQDAMNLVTDIKYNADSNGGNISFKVDRSSIRQGNAVIAIKDVSDAILWSWHVWVTDEDINNVIEITNHQNVKYNFMPVNLGQCDGNTITYEERSCKVKFIAGDQSKEITIKQLANVIATGSNAPFYQWGRKDPLYPSNGMGNTTKIWYDKEGIPSTANPMKGTFSAGNDCIKNCILNPNLMHNRYNGDYTYYNLWSADNKTTSANDNPVNKTIYDPCPVGFKLPASNAFTGFTTTGESVSSSTQVNGTWSSSEKGWYFYTNSEKTQSIFFPALGYRSYSTMRPGSIGTQGCFWSAHPVAKGNNYYLRTSSVDVQPTYMVDRGFGYALRPCQD | not soluble |
| MQYTLKQISEHLNAKVINEPSGEVIITGLTYAEQAKENDLTLIDKQEHIKLWQNSKATAAIVSKKISKELAQVNDKPLIVVNNADLAMAKILELFSVPYPEQNGIHEKAIIDPTAKIGKNVSIGPSAYIGKNVEIGDNTIIYANVCIYNDAKVGTNCIIWPSVIIRDRTIIGHFCRLCSNCSIGSDGFGYRPSEDGRTIVRIPHIGNVVIGSFVDIGSNTCINNAKYGSTIIGDYTKIDNLVQIGHNVIIGKGCMICGQAGISGSVTIGDGVIIAGNAGIKDHTNIGSDARIGGKAGVMWDVPAGESHMGYPAYKDSELAKQWIAIRKLPETMKKLKAIAKSLNIDL | not soluble |
